The results in this text go back to the supplement of paper PMC5998384.

Data set [1] relates to HeLa Kyoto. As to the kind of experiment: solubility in G1/S (NP-40 vs SDS abundance) (log2 ratio); higher = more soluble. The settings on record: cell cycle stage: G1/S.
Data set [2] deals with HeLa Kyoto. As to the kind of experiment: melting temperature (median over replicates), in situ; higher = more thermally stable.
Data set [3] deals with HeLa Kyoto. As to the kind of experiment: solubility change mitosis vs G1/S (difference of NP-40 vs SDS log2 ratios) (log2 ratio difference); higher = more soluble in mitosis.
Data set [4] relates to HeLa Kyoto. As to the kind of experiment: thermal stability score vs G1/S (z-score of summed log2 fold changes over temperatures); higher = more thermally stable than in G1/S.
[5] abbreviates: cell cycle stage: early G1 (4.5 h after nocodazole release).
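For melting temperature (median over replicates), in situ in this document: HeLa Kyoto cells synchronized by double thymidine or nocodazole block, proteins quantified by TMT10plex mass spectrometry, three independent biological replicates.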
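For solubility change mitosis vs G1/S (difference of NP-40 vs SDS log2 ratios) in this document: synchronized HeLa Kyoto cells (double thymidine block for G1/S, nocodazole release for mitosis), protein amounts in NP-40 versus SDS lysates quantified by mass spectrometry, three biological replicates.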
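For solubility in G1/S (NP-40 vs SDS abundance) in this document: HeLa Kyoto cells arrested at G1/S by double thymidine block, proteins quantified by TMT10plex mass spectrometry in mild NP-40 versus SDS extracts, three biological replicates.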
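For thermal stability score vs G1/S (z-score of summed log2 fold changes over temperatures) in this document: synchronized HeLa Kyoto cells, proteins quantified by TMT10plex mass spectrometry, three biological replicates, mitosis taken 0.5 h after nocodazole release, G1/S directly after double thymidine block.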

As for “MDAVNAFNQELFSLMDMKPPISRAKMILITKAAIKAIKLYKHVVQIVEKFIKKCKPEYKVPGLYVIDSIVRQSRHQFGTDKDVFGPRFSKNITATFQYLYLCPSEDKSKIVRVLNLWQKNGVFKIEIIQPLLDMAAGTSNAAPVAENVTNNEGSPPPPVKVSSEPPTQATPNSVPAVPQLPSSDAFAAVAQLFQTTQGQQLQQILQTFQQPPKPQSPALDNAVMAQVQAITAQLKTTPTQPSEQKAAFPPPEQKTAFDKKLLDRFDYDDEPEAVEESKKEDTTAVTTTAPAAAVPPAPTATVPAAAAPAAASPPPPQAPFGFPGDGMQQPAYTQHQNMDQFQPRMMGIQQDPMHHQVPLPPNGQMPGFGLLPTPPFPPMAQPVIPPTPPVQQPFQASFQAQNEPLTQKPHQQEMEVEQPCIQEVKRHMSDNRKSRSRSASRSPKRRRSRSGSRSRRSRHRRSRSRSRDRRRHSPRSRSQERRDREKERERRQKGLPQVKPETASVCSTTLWVGQLDKRTTQQDVASLLEEFGPIESINMIPPRGCAYIVMVHRQDAYRALQKLSRGNYKVNQKSIKIAWALNKGIKADYKQYWDVELGVTYIPWDKVKPEELESFCEGGMLDSDTLNPDWKGIPKKPENEVAQNGGAETSHTEPVSPIPKPLPVPVPPIPVPAPITVPPPQVPPHQPGPPVVGALQPPAFTPPLGIPPPGFGPGVPPPPPPPPFLRPGFNPMHLPPGFLPPGPPPPITPPVSIPPPHTPPISIPNSTIAGINEDTTKDLSIGNPIPTVVSGARGNAESGDSVKMYGSAVPPAAPTNLPTPPVTQPVSLLGTQGVAPGPVIGLQAPSTGLLGARPGLIPLQRPPGMPPPHLQRFPLMPPRPMPPHMMHRGPPPGPGGFAMPPPHGMKGPFPPHGPFVRPGGMPGLGGPGPGPGGPEDRDGRQQPPQQPQQQPQPQAPQQPQQQQQQQPPPSQQPPPTQQQPQQFRNDNRQQFNSGRDQERFGRRSFGNRVENDRERYGNRNDDRDNSNRDRREWGRRSPDRDRHRDLEERNRRSSGHRDRERDSRDRESRREKEEARGKEKPEVTDRAGGNKTVEPPISQVGNVDTASELEKGVSEAAVLKPSEELPAEATSSVEPEKDSGSAAEAPR [SCAF4]”, the “solubility in G1/S (log2)” value in the data set on HeLa Kyoto [1] is -0.347. For the same sequence, the results for the melting temperature in the data set on HeLa Kyoto [2] (cell cycle stage: G1/S) and in the data set on HeLa Kyoto [2] (cell cycle stage: mitosis) were 48.5 °C and 51.4 °C, respectively. Further, the “solubility change mitosis (log2)” value in the data set with HeLa Kyoto [3] turned out to be 0.211. The figures for the thermal stability score in the data set on HeLa Kyoto [4] (setting [5]) and in the data set on HeLa Kyoto [4] (cell cycle stage: mitosis) were 0.0642 and -0.063, respectively.
“MDCYTANWNPLGDSAFYRKYELYSMDWDLKEELRDCLVAAAPYGGPIALLRNPWRKEKAASVRPVLDIYSASGMPLASLLWKSGPVVSLGWSAEEELLCVQEDGAVLVYGLHGDFRRHFSMGNEVLQNRVLDARIFHTEFGSGVAILTGAHRFTLSANVGDLKLRRMPEVPGLQSAPSCWTVLCQDRVAHILLAVGPDLYLLDHAACSAVTPPGLAPGVSSFLQMAVSFTYRHLALFTDTGYIWMGTASLKEKLCEFNCNIRAPPKQMVWCSRPRSKERAVVVAWERRLMVVGDAPESIQFVLDEDSYLVPELDGVRIFSRSTHEFLHEVPAASEEIFKIASMAPGALLLEAQKEYEKESQKADEYLREIQELGQLTQAVQQCIEAAGHEHQPDMQKSLLRAASFGKCFLDRFPPDSFVHMCQDLRVLNAVRDYHIGIPLTYSQYKQLTIQVLLDRLVLRRLYPLAIQICEYLRLPEVQGVSRILAHWACYKVQQKDVSDEDVARAINQKLGDTPGVSYSDIAARAYGCGRTELAIKLLEYEPRSGEQVPLLLKMKRSKLALSKAIESGDTDLVFTVLLHLKNELNRGDFFMTLRNQPMALSLYRQFCKHQELETLKDLYNQDDNHQELGSFHIRASYAAEERIEGRVAALQTAADAFYKAKNEFAAKATEDQMRLLRLQRRLEDELGGQFLDLSLHDTVTTLILGGHNKRAEQLARDFRIPDKRLWWLKLTALADLEDWEELEKFSKSKKSPIGYLPFVEICMKQHNKYEAKKYASRVGPEQKVKALLLVGDVAQAADVAIEHRNEAELSLVLSHCTGATDGATADKIQRARAQAQKK [VPS16]”: the “solubility in G1/S (log2)” value in the data set with HeLa Kyoto [1] was -0.206. Besides, the melting temperature with HeLa Kyoto [2] (cell cycle stage: G1/S) is 49.9 °C; in the data set with HeLa Kyoto [2] (cell cycle stage: mitosis), 50.1 °C. Besides, in the data set on HeLa Kyoto [3], the “solubility change mitosis (log2)” value was -0.12. For the same sequence, the thermal stability score came to 0.278 in the data set on HeLa Kyoto [4] (setting [5]) and 0.681 in the data set on HeLa Kyoto [4] (cell cycle stage: mitosis).
“MDDTLFQLKFTAKQLEKLAKKAEKDSKAEQAKVKKALLQKNVECARVYAENAIRKKNEGVNWLRMASRVDAVASKVQTAVTMKGVTKNMAQVTKALDKALSTMDLQKVSSVMDRFEQQVQNLDVHTSVMEDSMSSATTLTTPQEQVDSLIMQIAEENGLEVLDQLSQLPEGASAVGESSVRSQEDQLSRRLAALRN [CHMP1A]”: the “solubility in G1/S (log2)” value with HeLa Kyoto [1] was 0.509. Further, the melting temperature with HeLa Kyoto [2] (cell cycle stage: G1/S) was found to be 54.4 °C; in the data set on HeLa Kyoto [2] (cell cycle stage: mitosis), 53.9 °C. For the same sequence, the “solubility change mitosis (log2)” value in the data set on HeLa Kyoto [3] amounted to 0.313. Also, the thermal stability score in the data set on HeLa Kyoto [4] (setting [5]) was -0.982; in the data set on HeLa Kyoto [4] (cell cycle stage: mitosis), -1.61.
In the case of “MDEDGLPLMGSGIDLTKVPAIQQKRTVAFLNQFVVHTVQFLNRFSTVCEEKLADLSLRIQQIETTLNILDAKLSSIPGLDDVTVEVSPLNVTSVTNGAHPEATSEQPQQNSTQDSGLQESEVSAENILTVAKDPRYARYLKMVQVGVPVMAIRNKMISEGLDPDLLERPDAPVPDGESEKTVEESSDSESSFSD [CCDC53]”, in the data set on HeLa Kyoto [1], the “solubility in G1/S (log2)” value is -0.349. Further, the melting temperature in the data set with HeLa Kyoto [2] (cell cycle stage: G1/S) came out at 52.7 °C. Besides, the “solubility change mitosis (log2)” value with HeLa Kyoto [3] is -0.0689. Further, the thermal stability score in the data set on HeLa Kyoto [4] (setting [5]) was 0.159; with HeLa Kyoto [4] (cell cycle stage: mitosis) it was -0.73.
